Results from article PMC4713133 (Molecular Biology of the Cell, 2016).

Legend:
Sec8-Myc = Sec8-Myc (rat, UniProt Q62824 1-975); experiment: pull-down
Sec5-Myc = Sec5-Myc (rat, UniProt O54921 1-924); experiment: pull-down
Sec5-Myc, sequence (O54921 whole entry): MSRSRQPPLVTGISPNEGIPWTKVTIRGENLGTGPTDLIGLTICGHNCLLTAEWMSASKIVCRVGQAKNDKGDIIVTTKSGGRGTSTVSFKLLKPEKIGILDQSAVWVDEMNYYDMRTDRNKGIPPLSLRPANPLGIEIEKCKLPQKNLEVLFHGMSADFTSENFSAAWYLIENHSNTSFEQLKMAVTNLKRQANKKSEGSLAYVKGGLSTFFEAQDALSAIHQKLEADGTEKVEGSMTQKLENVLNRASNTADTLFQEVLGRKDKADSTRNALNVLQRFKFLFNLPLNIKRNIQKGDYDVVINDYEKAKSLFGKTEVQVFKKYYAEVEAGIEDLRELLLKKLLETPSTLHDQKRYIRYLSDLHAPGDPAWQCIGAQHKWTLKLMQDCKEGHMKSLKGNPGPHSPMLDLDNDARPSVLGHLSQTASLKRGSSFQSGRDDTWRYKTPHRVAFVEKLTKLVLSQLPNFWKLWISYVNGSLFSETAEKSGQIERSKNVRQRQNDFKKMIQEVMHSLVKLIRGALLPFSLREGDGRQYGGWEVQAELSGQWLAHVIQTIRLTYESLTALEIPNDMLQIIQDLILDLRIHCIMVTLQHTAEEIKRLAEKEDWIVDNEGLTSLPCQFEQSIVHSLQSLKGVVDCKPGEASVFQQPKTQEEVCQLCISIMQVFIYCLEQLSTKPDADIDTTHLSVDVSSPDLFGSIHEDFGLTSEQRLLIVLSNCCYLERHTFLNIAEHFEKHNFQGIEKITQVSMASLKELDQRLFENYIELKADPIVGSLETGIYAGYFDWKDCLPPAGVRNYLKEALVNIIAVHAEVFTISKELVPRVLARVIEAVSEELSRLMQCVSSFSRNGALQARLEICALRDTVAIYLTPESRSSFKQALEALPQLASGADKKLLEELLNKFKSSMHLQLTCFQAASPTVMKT

Sec8-Myc, sequence (Q62824 whole entry): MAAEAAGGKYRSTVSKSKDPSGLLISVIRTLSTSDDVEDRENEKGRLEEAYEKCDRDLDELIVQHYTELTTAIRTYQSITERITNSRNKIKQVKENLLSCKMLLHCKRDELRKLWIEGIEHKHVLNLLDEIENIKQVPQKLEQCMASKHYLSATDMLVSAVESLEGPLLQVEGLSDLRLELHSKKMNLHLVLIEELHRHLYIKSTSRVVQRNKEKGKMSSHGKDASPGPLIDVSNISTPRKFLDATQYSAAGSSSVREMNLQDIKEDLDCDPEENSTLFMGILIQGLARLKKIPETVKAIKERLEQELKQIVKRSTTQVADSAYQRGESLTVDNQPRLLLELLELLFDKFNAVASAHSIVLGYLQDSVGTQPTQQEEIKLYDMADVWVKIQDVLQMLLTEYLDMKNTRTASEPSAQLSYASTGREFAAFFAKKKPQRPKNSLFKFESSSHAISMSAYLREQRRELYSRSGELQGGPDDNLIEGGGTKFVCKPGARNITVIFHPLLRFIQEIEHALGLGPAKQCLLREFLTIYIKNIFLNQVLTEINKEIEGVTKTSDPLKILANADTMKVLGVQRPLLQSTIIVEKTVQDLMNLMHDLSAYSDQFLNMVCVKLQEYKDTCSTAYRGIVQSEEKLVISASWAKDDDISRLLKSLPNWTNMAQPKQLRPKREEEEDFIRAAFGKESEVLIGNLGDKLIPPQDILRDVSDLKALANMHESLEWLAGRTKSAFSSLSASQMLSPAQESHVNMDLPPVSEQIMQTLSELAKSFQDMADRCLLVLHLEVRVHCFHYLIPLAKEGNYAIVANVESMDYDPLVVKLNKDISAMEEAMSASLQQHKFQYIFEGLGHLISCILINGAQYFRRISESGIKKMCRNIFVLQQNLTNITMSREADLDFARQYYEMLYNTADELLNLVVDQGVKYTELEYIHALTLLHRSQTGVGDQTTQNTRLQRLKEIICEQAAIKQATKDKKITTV

B1: Arl13b-GST (natural protein)
chain: not shown
Sec8-Myc
  binding result: binds
Sec5-Myc
  binding result: binds
